Patent US11034736B2, “Anti-viral cnidarins” (priority 2014, dated 2021)
Where two headings read alike, the source gives them in different places.

Columns and labels:
CEM-SS cells = assay: Direct toxicity to uninfected CEM-SS control cells (XTT); type: cell-based, human
Description: A 2,3-bis-[2-methoxy-4-nitro-5-sulfophenyl]-2H-tetrazolium-5-carboxanilide inner salt (XTT)-tetrazolium-based assay was used to determine the anti-HIV activity of CNID-1, -2 and -3 against a T-tropic laboratory strain (HIV-1RF) in T-lymphoblastic CEM-SS cells as described previously (Gulakowski et al., J. Virol. Methods, 33: 87-100 (1991)). CEM-SS cells were maintained in RPMI 1640 media without phenol red and supplemented with 10% fetal bovine serum (BioWhittaker), 2 mM L-glutamine (BioWhittaker), and 50 μg/ml gentamicin (BioWhittaker) (complete medium). Exponentially growing cells were washed and resuspended in complete medium, and a 50 μl aliquot containing 5×10^3 cells was added to individual wells of a 96-well round-bottom microtiter plate containing serial dilutions of the respective cnidarin protein in a volume of 100 μl of medium. Stock supernatants of HIV-1RF were diluted in complete medium to yield sufficient cytopathicity (80-90% cell kill in 6 days), and a 50 μl aliquot was added to appropriate wells. Plates were incubated for 6 days at 37° C. and then stained for cellular viability using XTT.
(§1) The HIV reverse transcriptase inhibitor 3′-Azido-3′-deoxythymidine (AZT) was used as a positive control. All assays were carried out in triplicate for all viruses and cells.

HIV-1US/92/727 = assay: Anti-HIV evaluation in PHA-stimulated human PBMCs, reverse transcriptase in supernatant; type: cell-based; details: HIV-1US/92/727, human PBMCs, 7 days
Description: The cultures were incubated for 7 days at 37° C./5% CO2. Efficacy of the compounds was evaluated by measuring the amount of reverse transcriptase in the culture supernatant and toxicity was evaluated using XTT to measure cell viability. AZT was evaluated in parallel as an assay control.

[1] = system: HeLa CD4 LTR β-galactosidase cells; assay: Cytotoxicity in the attachment and fusion assays; type: cell-based
Description: as §1
Attachment and fusion assays were performed in HeLa-CD4-LTR-β-galactosidase cell lines as described previously (Gartner & Popovic, (1990), supra) with the following modifications. Following the interaction of HIV-1IIIIIB with HeLa CD4 LTR β-gal cells, viral attachment to HeLa CD4 LTR β-gal cells was detected as cell-associated p24 antigen following a 1 hour adsorption of virus and vigorous washing for removal of unbound virus. Fusion of HIV-1IIIIB with HeLa CD4 LTR β-gal cells was detected by chemiluminescence using a single-step lysis and detection method (Tropix Gal-screen, Bedford, Mass.) and results reported as EC50 values. Chicago Sky Blue, a polysulfonic acid dye inhibitor of HIV attachment and fusion, was used as a positive control for all assays (Clanton et al., J. Acquired Immune Defic. Syndr., 5: 771-781 (1992)).

HIV-1IIIB gp120 = HIV-1IIIB gp120 (Human immunodeficiency virus type 1 group M subtype B, UniProt P04578); details: ELISA
Description: High protein binding Greiner 96-well plates (VWR, Bridgeport, N.J.) were coated with 1 pmol/well of recombinant HIV-1IIIIB gp120 (Immuno Diagnostics, Woburn, Mass.) or recombinant HIV-1HXB2 gp41 (Vybion Inc., Ithaca, N.Y.) at 4° C. overnight. The wells were emptied and then blocked with 200 μl/well of 3% non-fat dry milk (Bio-Rad, Hercules, Calif.) blocking solution for 2 hrs. A control plate was incubated with blocking solution only. After washing three times with PBST, 0.5-log10 serial dilutions of rCNID-1-Trx were added to triplicate wells of gp120−, gp41− and the blocking solution control plate, and the plates were incubated for 2 hrs. The plates were washed with PBST and 100 W/well of a 1:250 dilution of polyclonal rabbit anti-CNID-1 antibody was added and allowed to incubate for 1 hr, followed by three washes with PBST. Goat anti-rabbit (H+L), peroxidase conjugated secondary antibody (Thermo Fisher Scientific Inc., Rockford, Ill.) was added to each well (100 μl/well of a 1:1000 dilution) and further incubated for 1 hr, followed by three washes with PBST. The TMB 2-component Microwell peroxidase substrate kit (KPL Inc., Gaithersburg, Md.) was used for peroxidase detection: 100 W/well, incubation for 5-10 min and the reaction was stopped by addition of 0.5M HCl (100 W/well) before reading the absorbance at 450 nm.
Briefly, 100 ng/wells of glycosylated recombinant HIV-1IIIB gp120 (Immuno Diagnostics, Woburn, Mass.) or nonglycosylated HIV-1 gp120 (MyBioSource LLC, San Diego, Calif.) was added to the wells of two 96-well plates, and incubated overnight at 4° C. The plates were washed and blocked as previously described. Serial dilutions of rCNID-1-Trx were added (100 W/well); incubation done for 2 hrs. The plates were then washed and visualized using anti-CNID-1 polyclonal antibodies as above.

B1: CNID-1: HIV-inhibitory protein from soft coral Synthecium sp.; 172 amino acids, 18,122 Da, SEQ ID NO: 1 (protein)
chain: GRATLGQLKTSTIPPVTFDVPFDGANIPQDVRFTIATVNGGKGALYNAELGESAGHTIVLESDGDHPIPGTFDPKSGRGLDYLPRGLVLFSSHNYVGNMKMYTEPDSDITADFPPGTPFGVSSAITGEGSAFQLNTGIDHTGEFEIIPPNTKRNLAGVFDNEIRSVSPTGGK
Work on B1 yielded a CC50 (CEM-SS cells) of 112 nM, an EC50 (HIV-1US/92/727) of 0.0427 µg/mL and a CC50 ([1]; attachment assay, read-out: Inhibition of Attachment CC50) of over 55.2 nM. For the same molecule, the CC50 ([1]; fusion assay, read-out: Inhibition of Fusion CC50) was over 55.2 nM, the “Binding to glycosylated versus non-glycosylated gp120” value (HIV-1IIIB gp120; 100 ng/well) was “bound better to glycosylated gp120 as compared to non-glycosylated gp120” and the “Binding to gp120” value (HIV-1IIIB gp120; 100 ng/well gp120) was “specific binding to viral glycoprotein gp120 in a concentration-dependent manner”.
